Experimental data as given in paper doi:10.1101/2020.12.15.422995.

Target: T1, Fur (PerR homolog), 17.4 kDa (Bacillus subtilis, UniProt P54574 1-149)
T1 sequence: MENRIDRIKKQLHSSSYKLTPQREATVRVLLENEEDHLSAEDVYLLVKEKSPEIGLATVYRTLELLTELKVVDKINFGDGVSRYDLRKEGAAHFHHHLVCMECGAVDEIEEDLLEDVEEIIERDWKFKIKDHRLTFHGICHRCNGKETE
Assay: EMSA

B1: 54-bp degenerate sloR promoter (Deg_sloR_CC1) (dsDNA)
DNA 1: CCTGATAGGATGATGGATAATTAAGGCTTTTATCCACTTTTTACTGACATTTTG
DNA 2: CAAAATGTCAGTAAAAAGTGGATAAAAGCCTTAATTATCCATCATCCTATCAGG
binding signal: 63 % band shift at 60 nM Fur (relative to 400 nM)
